In assay [1] the target is Gal4AD-Caf1a (UniProt Q9UIV1). Kind of assay: yeast two-hybrid (β-galactosidase reporter). Conditions: yeast strain YRG-2, LacZ reporter under five GAL4 consensus sequences; triplicate; parent: est. 8.4; read off a plot.
The target in assay [2] is Gal4AD-Caf1b (UniProt Q9UFF9). The assay can be described thus: yeast two-hybrid (β-galactosidase reporter). The following applies: yeast strain YRG-2, LacZ reporter under five GAL4 consensus sequences; triplicate; parent: est. 25; read off a plot.
Sequence of UniProt Q9UFF9 (Q9UFF9 whole entry, the tested form may be a part): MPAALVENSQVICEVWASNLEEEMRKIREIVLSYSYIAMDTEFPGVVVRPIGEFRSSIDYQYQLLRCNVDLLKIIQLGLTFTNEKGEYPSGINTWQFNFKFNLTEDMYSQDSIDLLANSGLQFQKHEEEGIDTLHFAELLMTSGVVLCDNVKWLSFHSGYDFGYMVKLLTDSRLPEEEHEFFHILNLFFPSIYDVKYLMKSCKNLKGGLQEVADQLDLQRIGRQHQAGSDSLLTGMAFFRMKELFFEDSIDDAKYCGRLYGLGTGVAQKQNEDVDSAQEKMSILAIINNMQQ

Sequence of UniProt Q9UIV1 (Q9UIV1 whole entry, the tested form may be a part): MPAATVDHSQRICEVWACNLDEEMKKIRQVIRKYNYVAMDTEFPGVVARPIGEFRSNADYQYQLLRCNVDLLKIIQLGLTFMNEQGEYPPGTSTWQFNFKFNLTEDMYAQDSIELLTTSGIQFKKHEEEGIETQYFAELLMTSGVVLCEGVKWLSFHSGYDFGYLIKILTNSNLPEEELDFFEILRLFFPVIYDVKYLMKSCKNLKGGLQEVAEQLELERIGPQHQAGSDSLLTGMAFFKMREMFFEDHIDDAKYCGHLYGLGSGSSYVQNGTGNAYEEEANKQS

On to “Gal4-DNA binding domain-TOB1 (from UniProt P50616) H45A”, for which the response in assay [1] was 1.7 x10^4 RLU; in assay [2], 2.8 x10^4 RLU.

(Values after paper PMC3517456.)
